Laboratory results published in publication PMC10899662, “TopBP1 utilises a bipartite GINS binding mode to support genome replication” (Nature Communications, 2024).

Columns and labels:
GINS = assay: Pulldown of recombinant TopBP1-BRCT0-5 by immobilised GINS, 150 mM NaCl; format: binding; conditions: for GINS binding? (rec. proteins): summary of recombinant protein interaction tests (yes/no); for GINS interaction: 100 nM TopBP1, 20 mM HEPES pH 8.0, 150 mM NaCl, 0.01% Tween-20, 45 min, 4 °C
Excerpt: Fig. 1 GINS and TopBP1 interact. a (i) Domain model of human (hs) TopBP1, its conservation with BRCT1/2 and 3/4 domains (grey boxes) of budding yeast Dpb11 (scDpb11). Arrows point to binding domains for interacting proteins. (ii) Overview of TopBP1 wild type (WT) and BRCT deletion (Δ) and point mutants. GINS binding capabilities are labelled in red and green. Numbers, amino acid position; capital letters indicate amino acid substitutions. Amino acid substitutions of point mutants in BRCT4 (B4mut) and 5 (B5mut) are coloured orange. b Elution profiles of size exclusion chromatography (Superdex200) of individual recombinant TopBP1-BRCT0-5 protein (grey) and GINS tetramers (green), or of both upon incubation (blue). c Recombinant GINS immobilised on Flag-beads and control beads (Flag peptide-coupled beads) were used to pull down recombinant TopBP1-0-5-WT or TopBP1-ΔBRCT4/5 (compare a(ii)). SDS gels were silver stained. kDa specifies molecular weight marker bands. The experiment was done more than three times with similar results. Source data are provided as a Source data file. TEXT PRINTED IN THE PICTURE: (a) BRCT0-5-WT: GINS binding? (rec. proteins): yes | (a) ΔBRCT4/5: GINS binding? (rec. proteins): no | (a) ΔBRCT3: GINS binding? (rec. proteins): yes | (a) ΔBRCT0/1/2: GINS binding? (rec. proteins): yes | (a) B5mut: GINS binding? (rec. proteins): yes | (a) B4mut: GINS binding? (rec. proteins): no
Fig. 2 Protein structure of the GINS-TopBP1-BRCT4/5 complex. a Structural model of the GINS-TopBP1-BRCT4/5 complex. Crystal structures of the GINS subunits (PDB:2E9X) (shades of green, yellow), and the central BRCT4/5 domain of TopBP1 (PDB:3UEN) (grey) were docked into the cryo-EM volume shown as transparent volume. b Zoom-in of the BRCT4-Psf1 interface. The residues in stick representation appear crucial for the interface. Mutations to break the interaction are coloured pink (Psf1-I97R) and purple (TopBP1-B4mut; compare Fig. 1a(ii)). c Pulldown of the indicated recombinant TopBP1-BRCT0-5-strep versions (see Fig. 1a(ii)) by Flag-beads-immobilised recombinant GINS or Flag peptide-coupled control beads. Analysis was done by immunoblotting. The experiment was done more than three times with similar results. d Pulldown of the indicated recombinant TopBP1-BRCT0-5-WT-strep using immobilised GINS-WT or GINS carrying a Ile97 to arginine mutation in Psf1.TopBP1-Gcc/B4mut-strep (Figs. 1a(ii) and 3a) was used as a non-GINS binding control. The experiment was done twice with similar results. Source data are provided as a Source data file.
Fig. 3 The conserved core of the TopBP1-GINI domain is required for a stable interaction with GINS. a Domain model and T-COFFEE alignment (one-letter aa code) of TopBP1 proteins from humans (Q92547) Xenopus laevis (Q7ZZY3), Bos taurus (A0A3Q1LWE4) and Rattus norvegicus (A0A8I6GFZ6). Coloured boxes indicate GINI region mutants in sub-regions I (blue), II (green) and III (orange), and in the GINI core helix (red) (details in Supplementary Fig. 7). Amino acid substitutions, names of GINI core region mutations and corresponding GINS binding capabilities are shown. ., : and * indicate low conservation, high conservation and identical amino acids, respectively. b/c Pulldown of recombinant TopBP1-BRCT0-5-strep-WT or the indicated GINI region mutants (a) by bead-immobilised GINS or Flag peptide-coupled control beads. Analysis was done by immunoblotting. The experiments were done more than three times with similar results. Source data are provided as a Source data file. d Fluorescence polarisation measurements including dissociation constants (kD) calculations using recombinant GINS tetramer and fluorescently labelled TopBP1-GINI-core peptides (WT or Gpp (a)). For each peptide n = 3 independent experiments and data are presented as mean values +/−SEM. TEXT PRINTED IN THE PICTURE: (a) TopBP1-Gcc: GINS binding? (rec. proteins): no | (a) TopBP1-Gcore: GINS binding? […]

53BP1 = assay: Pulldown of endogenous 53BP1 from 293T cell lysates with recombinant TopBP1; format: binding; conditions: pulldown from 293T cell lysates, immunoblotting; 2 h, 4 °C
Protocol: For pulldown assays from soluble lysates of non-transfected 293T cells, 5 µl streptactin Sepharose HP (Cytiva, 28935599) beads were coupled with 10 µg recombinant TopBP1-1-766-strep-WT or mutants in coupling buffer (20 mM HEPES pH 8.0, 150 mM NaCl, 0.1% (v/v) Tween-20, 0.5 mM TCEP, 2% (v/v) glycerol) for 45 min at 4 °C before washing two times with coupling buffer and then once in cell lysis buffer (20 mM HEPES pH 8.0, 150 mM NaCl, 0.1% (v/v) Tween-20, 0.5 mM TCEP, 2% (v/v) glycerol, protease inhibitor cocktail (Roche Complete protease inhibitor cocktail, 05056489001). Control pulldowns were done with Flag-peptide-coupled beads or, when indicated, using GINS-coupled beads and the non-GINS binding TopBP1-Gcc-B4mut. 293T cells were lysed in ten times pellet volume of cell lysis buffer, and centrifuged at 20,000 × g for 15 min at 4 °C. Soluble lysate from cells equivalent to 50% of a 15 cm tissue culture plate was added to the TopBP1-coupled beads and incubated for 2 h at 4 °C rotating. Beads were washed three times with 5 min incubation in lysis buffer and boiled in 50 µl Laemmli buffer before SDS PAGE.
Supplementary Fig. 6: Experiments to control quality of recombinant protein mutants. a: Recombinant TopBP1 point mutants of the GINI and BRCT4 regions bind 53BP1 phospho-dependently. […] Lysates and pulldowns were analysed by immunoblofng. […]

| Molecule | GINS binding? (rec. proteins) (GINS) | binding to (phospho-)53BP1 (53BP1) | GINS interaction (GINS) |
| --- | --- | --- | --- |
| TopBP1-BRCT0-5-WT: recombinant TopBP1 amino acids 1–766, strep-tagged (protein, left off: Strep, C-terminal, kept, recombinant TopBP1 amino acids 1–766, strep-tagged) MSRNDKEPFFVKFLKSSDNSKCFFKALESIKEFQSEEYLQIITEEEALKIKENDRSLYICDPFSGVVFDHLKKLGCRIVGPQVVIFCMHHQRCVPRAEHPVYNMVMSDVTISCTSLEKEKREEVHKYVQMMGGRVYRDLNVSVTHLIAGEVGSKKYLVAANLKKPILLPSWIKTLWEKSQEKKITRYTDINMEDFKCPIFLGCIICVTGLCGLDRKEVQQLTVKHGGQYMGQLKMNECTHLIVQEPKGQKYECAKRWNVHCVTTQWFFDSIEKGFCQDESIYKTEPRPEAKTMPNSSTPTSQINTIDSRTLSDVSNISNINASCVSESICNSLNSKLEPTLENLENLDVSAFQAPEDLLDGCRIYLCGFSGRKLDKLRRLINSGGGVRFNQLNEDVTHVIVGDYDDELKQFWNKSAHRPHVVGAKWLLECFSKGYMLSEEPYIHANYQPVEIPVSHKPESKAALLKKKNSSFSKKDFAPSEKHEQADEDLLSQYENGSSTVVEAKTSEARPFNDSTHAEPLNDSTHISLQEENQSSVSHCVPDVSTITEEGLFSQKSFLVLGFSNENESNIANIIKENAGKIMSLLSRTVADYAVVPLLGCEVEATVGEVVTNTWLVTCIDYQTLFDPKSNPLFTPVPVMTGMTPLEDCVISFSQCAGAEKESLTFLANLLGASVQEYFVRKSNAKKGMFASTHLILKERGGSKYEAAKKWNLPAVTIAWLLETARTGKRADESHFLIENSTKEERSLETEITNGINLNSDTAEHP | yes | – | – |
| TopBP1-Gpp: TopBP1-BRCT0-5, central leucine-leucine motif mutated to two consecutive prolines (protein, left off: Strep, C-terminal, kept, TopBP1-BRCT0-5, central leucine-leucine motif mutated to two consecutive prolines) MSRNDKEPFFVKFLKSSDNSKCFFKALESIKEFQSEEYLQIITEEEALKIKENDRSLYICDPFSGVVFDHLKKLGCRIVGPQVVIFCMHHQRCVPRAEHPVYNMVMSDVTISCTSLEKEKREEVHKYVQMMGGRVYRDLNVSVTHLIAGEVGSKKYLVAANLKKPILLPSWIKTLWEKSQEKKITRYTDINMEDFKCPIFLGCIICVTGLCGLDRKEVQQLTVKHGGQYMGQLKMNECTHLIVQEPKGQKYECAKRWNVHCVTTQWFFDSIEKGFCQDESIYKTEPRPEAKTMPNSSTPTSQINTIDSRTLSDVSNISNINASCVSESICNSLNSKLEPTLENLENLDVSAFQAPEDLLDGCRIYLCGFSGRKLDKLRRLINSGGGVRFNQLNEDVTHVIVGDYDDELKQFWNKSAHRPHVVGAKWLLECFSKGYMLSEEPYIHANYQPVEIPVSHKPESKAALLKKKNSSFSKKDFAPSEKHEQADEDPPSQYENGSSTVVEAKTSEARPFNDSTHAEPLNDSTHISLQEENQSSVSHCVPDVSTITEEGLFSQKSFLVLGFSNENESNIANIIKENAGKIMSLLSRTVADYAVVPLLGCEVEATVGEVVTNTWLVTCIDYQTLFDPKSNPLFTPVPVMTGMTPLEDCVISFSQCAGAEKESLTFLANLLGASVQEYFVRKSNAKKGMFASTHLILKERGGSKYEAAKKWNLPAVTIAWLLETARTGKRADESHFLIENSTKEERSLETEITNGINLNSDTAEHP | no | no effect on binding to 53BP1 | strongly compromised |
| TopBP1-B4mut: Val590, Thr606 and Val610 mutated to glutamate, arginine and glutamate (protein, left off: Strep, C-terminal, kept) MSRNDKEPFFVKFLKSSDNSKCFFKALESIKEFQSEEYLQIITEEEALKIKENDRSLYICDPFSGVVFDHLKKLGCRIVGPQVVIFCMHHQRCVPRAEHPVYNMVMSDVTISCTSLEKEKREEVHKYVQMMGGRVYRDLNVSVTHLIAGEVGSKKYLVAANLKKPILLPSWIKTLWEKSQEKKITRYTDINMEDFKCPIFLGCIICVTGLCGLDRKEVQQLTVKHGGQYMGQLKMNECTHLIVQEPKGQKYECAKRWNVHCVTTQWFFDSIEKGFCQDESIYKTEPRPEAKTMPNSSTPTSQINTIDSRTLSDVSNISNINASCVSESICNSLNSKLEPTLENLENLDVSAFQAPEDLLDGCRIYLCGFSGRKLDKLRRLINSGGGVRFNQLNEDVTHVIVGDYDDELKQFWNKSAHRPHVVGAKWLLECFSKGYMLSEEPYIHANYQPVEIPVSHKPESKAALLKKKNSSFSKKDFAPSEKHEQADEDLLSQYENGSSTVVEAKTSEARPFNDSTHAEPLNDSTHISLQEENQSSVSHCVPDVSTITEEGLFSQKSFLVLGFSNENESNIANIIKENAGKIMSLLSRTEADYAVVPLLGCEVEARVGEEVTNTWLVTCIDYQTLFDPKSNPLFTPVPVMTGMTPLEDCVISFSQCAGAEKESLTFLANLLGASVQEYFVRKSNAKKGMFASTHLILKERGGSKYEAAKKWNLPAVTIAWLLETARTGKRADESHFLIENSTKEERSLETEITNGINLNSDTAEHP | no | could still interact with phospho-53BP1 | strongly compromised in its ability to bind GINS |
